Measured values published in the supplement of paper PMC10567573.
± gives the standard deviation.

Test: protein stability index of a GFP-peptide fusion (GPS, HEK-293T) (PSI 1-6); higher = more stable
Details: c terminus: a fixed tail appended
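Note: 24-mer peptide tiles fused after GFP, lentivirally expressed, FACS-sorted into six equal bins by GFP/DsRed ratio, decoded by Illumina sequencing, PSI is the read-weighted mean bin number.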

Row | Sequence | protein stability index (treatment: DMSO) | protein stability index (treatment: MLN4924 1 uM, 8 h)
1 | DMVQKSVSKTLPSTWSDPSVNISL [CLINT1] | 3.04 ± 0.19 | 3.2 ± 0.19
2 | KGTSPSSKYVKLNVGGALYYTTMQ [KCTD10] | 2.28 ± 0.091 | 2.2 ± 0.14
3 | GYKEFFMKCQSYCEPPSYRPMHHE [CDC25A] | 2.49 ± 0.15 | 2.42 ± 0.34
4 | WMWLSCSSFFQQFFHCYCPVGFGR [CRY1] | 2.42 ± 0.2 | 2.4 ± 0.25
5 | FLLSVYAPGSSVEYQCQNLYQLEG [CFHR2] | 2.75 ± 0.48 | 2.52 ± 0.44
6 | AREGGGCGRSEVRPVAPRRPRDAV [SMAD6] | 4.43 ± 0.26 | 4.36 ± 0.21
7 | QDLCCRTIVSCTPVHLVDKLPLPS [RAB40A] | 2.34 ± 0.26 | 2.39 ± 0.35
8 | DASEAHESSSRGEAGAPGEEDIQG [CHGB] | 5.69 ± 0.3 | 5.56 ± 0.28
9 | TFIVSCKFSPDGKYVVSGFDVDHG [WDR88] | 2.79 ± 0.39 | 2.81 ± 0.53
10 | EDDDCDDDDDDDAQILPSRVQGGC [DRICH1] | 5.47 ± 0.22 | 5.43 ± 0.11
11 | FFFRHGHRGLLTMQLKSPMPSSTT [SPAG8] | 2.14 ± 0.26 | 2 ± 0.23
12 | ESGVSVSNSQPTNESHSIKAILKN [SLC29A1] | 5.03 ± 0.53 | 4.9 ± 0.46
13 | LGDALAGPPRAPGRSGWPAGGAPG [HES6] | 3.88 ± 0.23 | 3.94 ± 0.44
14 | QVAFGSLYRDDVLIKPSRVVAILA [GMCL1] | 2.38 ± 0.62 | 2.46 ± 0.48
15 | VNLFLHFTVNPKPRVEYIDRPRCC [BTBD1] | 3.43 ± 0.18 | 3.12 ± 0.28
16 | GEASYSTIAPTLIADLFVADQRSR [SPNS1] | 3.21 ± 0.39 | 3.29 ± 0.6
17 | KLKNTVTIQQEKLLAEKEEKLQKE [SASS6] | 5.1 ± 0.46 | 5.2 ± 0.31
18 | LFFTALMITVPIGLYFTTKSYIFE [VMA21] | 2.73 ± 0.46 | 2.58 ± 0.055
19 | VDDFRLKYENELALRQSVEADING [KRT13] | 4.67 ± 0.15 | 4.62 ± 0.2
20 | FEQYCAWQLFLAHNIPLETIIPIL [INTS3] | 3.27 ± 0.74 | 2.85 ± 0.34

Row | Sequence | protein stability index (treatment: DMSO) | protein stability index (treatment: MLN4924 1 uM, 8 h)
21 | RSLLPSTEYQKQLLAAQVQLQCSP [FBF1] | 3.46 ± 0.41 | 3.73 ± 0.18
22 | GEKEVEALKKSADWVSDWSSRPEN [BNIP3L] | 4.78 ± 0.27 | 4.88 ± 0.39
23 | STPLSPAYISLVEEEDQHMKLSLG [KLHL13] | 4.27 ± 0.16 | 4.28 ± 0.19
24 | KVRSYVKRALAEGAQIWCGEGVDK [ALDH8A1] | 2.77 ± 0.098 | 2.78 ± 0.29
25 | SVHVPGPHAMTIQELVDYVNARQK [PTPN9] | 3.49 ± 0.34 | 3.47 ± 0.28
26 | FSLKQEETLDYGKNYNYGMHYCAV [NEUROD6] | 2.4 ± 0.18 | 2.07 ± 0.34
27 | RLMRDMAQLRLQLEVSQLEGSLQQ [SMG5] | 2.39 ± 0.43 | 2.6 ± 0.3
28 | RPDTGDDAAGHGFCYCAGSHKRKR [GMCL1] | 3.81 ± 0.74 | 4.47 ± 0.55
29 | EADSQEQGHPQTGCECEDGPDGQE [GAGE1] | 5.57 ± 0.28 | 5.57 ± 0.15
30 | DDDDHDDHEDNDKMNDSEGMDPER [NOL4L] | 5.54 ± 0.29 | 5.54 ± 0.23
31 | FQGSQGRAYLFNSVVNVGCGPAEE [YPEL3] | 2.57 ± 0.27 | 3.22 ± 0.1
32 | PVPPGWNPNSSSGKGSGGNAGSYI [DLX1] | 3.86 ± 0.21 | 3.93 ± 0.24
33 | GIQLLIVEYKDIASIHWDWKIALL [SLC35F2] | 2.58 ± 0.61 | 2.69 ± 0.78
34 | PEGGMEQALAGASSGRELGRPKEL [ZNF263] | 4.92 ± 0.11 | 5.29 ± 0.17
35 | EEFPKREDQEGSPPETSLPYKWVV [MYBL2] | 3.83 ± 0.33 | 3.99 ± 0.41
36 | TYKCTKQLLSERFGRGSRTVDLEL [ARFIP2] | 2.43 ± 0.32 | 2.33 ± 0.18
37 | GKSILLFGGAAAVAILAVAIGVAL [BCL2L13] | 2.98 ± 0.057 | 2.87 ± 0.3
38 | QIAQLEASLAAAKKQLADETLLKV [LMNB1] | 2.72 ± 0.65 | 2.8 ± 0.46
39 | LAAALAQHSVPLQLELRAGAERLD [TRADD] | 2.97 ± 0.36 | 2.94 ± 0.12
40 | LRRHAGLLDGLARRVGILGEELAD [SCARA5] | 3.37 ± 0.17 | 3.34 ± 0.18
